Test results taken from US20240115721A1 (published 2024).
Where two headings read alike, the source gives them in different places.

T1: Recombinant Human DLL3 Protein (amino acids Ala27-Ala479, cat #9749-DL, R&D Systems) (UniProt Q9NYJ7 27-479)
T1 chain: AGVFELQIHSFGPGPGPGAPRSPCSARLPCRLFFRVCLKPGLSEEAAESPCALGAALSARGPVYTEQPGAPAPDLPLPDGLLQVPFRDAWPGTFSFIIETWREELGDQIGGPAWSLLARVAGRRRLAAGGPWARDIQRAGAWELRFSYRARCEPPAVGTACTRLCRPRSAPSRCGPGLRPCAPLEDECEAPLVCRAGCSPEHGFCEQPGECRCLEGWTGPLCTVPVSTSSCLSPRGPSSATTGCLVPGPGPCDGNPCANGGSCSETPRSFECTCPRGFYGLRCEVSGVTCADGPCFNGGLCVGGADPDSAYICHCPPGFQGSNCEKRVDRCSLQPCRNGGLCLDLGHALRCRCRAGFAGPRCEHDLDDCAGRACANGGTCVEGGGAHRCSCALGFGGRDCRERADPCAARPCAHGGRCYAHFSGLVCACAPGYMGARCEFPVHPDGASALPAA

B1: 7-I1-B (antibody, V domains shown)
VH: EVQLVESGGGLVKPGGSLRLSCAASGFTFSNTWMSWVRQAPGKGLEWVGRIKSKSDGGTTDYAAPVKGRFTISRDDSKNTLYLQMNSLKTEDTAVYYCTQYYWNSFDYWGQGTLVTVSS
VL: not shown
B2: 6-G23-F (antibody, V domains shown)
VH: QVQLVQSGAEVKKPGASVKVSCKASGYTFTSYYIHWVRQAPGQGLEWMGIIDPSDGSTNYAQKFQGRVTMTRDTSTSTVYMELSSLRSEDTAVYYCARDREYNYYGLDVWGQGTTVTVSS
VL: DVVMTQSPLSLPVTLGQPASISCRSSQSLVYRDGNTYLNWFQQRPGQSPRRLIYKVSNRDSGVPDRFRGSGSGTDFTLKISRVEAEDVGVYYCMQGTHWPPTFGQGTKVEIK
B3: 10-O18-A (antibody, V domains shown)
VH: QVQLQESGPGLVKPSETLSLTCTVSGGSINSYYWSWIRQPPGKGLEWIGYIFYSGITNYNPSLKSRVTISLDTSKNQFSLKLSSVTAADTAVYYCARIGVAGFYFDYWGQGTLVTVSS
VL: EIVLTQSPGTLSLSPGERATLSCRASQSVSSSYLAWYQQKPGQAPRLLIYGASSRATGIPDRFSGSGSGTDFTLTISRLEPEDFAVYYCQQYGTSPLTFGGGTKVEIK
B4: 2-C8-A (antibody, V domains shown)
VH: EVQLVESGGGLVQPGGSQRLSCAASGFTFSSYWMNWVRQAPGKGLEWVANIKEDGSEKYYVDSVKGRFTISRDNAKNSLYLQMNSLRAEDTAVYYCARDPGWAPFDYWGQGTLVTVSS
VL: DIQMSQSPSSLSASVGDRVTITCRASQGISNYLAWFQQKPGKAPKSLIYAASSLQSGVPSKFSGSGSGTDFTLAISSLQPEDFATYYCQQYNSFPYTFGQGTTLEIK

Experiments:
Assay in all cases: BLI (Octet HTX)
[1] = biological target: T1, Recombinant Human DLL3 Protein (amino …)
[2] = biological target: T1, Recombinant Human DLL3 Protein (amino …)
[3] = biological target: T1, Recombinant Human DLL3 Protein (amino …)

| Binder | Kd [1] [nM] | Kd [2] [nM] | Kd [3] [nM] |
| --- | --- | --- | --- |
| B1 | 0.686 | 0.68 | – |
| B2 | 0.16 | 0.16 | – |
| B3 | – | 0.62 | 0.602 |
| B4 | – | 0.668 | 0.668 |
